How the values were obtained:
Test in all cases: fluorescence anisotropy
InrS H21L = target: T1, InrS H21L (Synechocystis PCC 6803, UniProt Q55554 61-167, H81L)
T1 sequence: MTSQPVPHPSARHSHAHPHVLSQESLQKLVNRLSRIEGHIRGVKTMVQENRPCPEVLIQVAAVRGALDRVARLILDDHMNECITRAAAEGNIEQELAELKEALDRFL

InrS = target: T2, InrS (Synechocystis PCC 6803, UniProt Q55554)
T2 sequence: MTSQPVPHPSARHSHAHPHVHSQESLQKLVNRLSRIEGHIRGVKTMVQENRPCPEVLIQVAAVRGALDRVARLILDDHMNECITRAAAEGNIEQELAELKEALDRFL

InrS H21E = target: T3, InrS H21E (Synechocystis PCC 6803, UniProt Q55554 61-167, H81E)
T3 sequence: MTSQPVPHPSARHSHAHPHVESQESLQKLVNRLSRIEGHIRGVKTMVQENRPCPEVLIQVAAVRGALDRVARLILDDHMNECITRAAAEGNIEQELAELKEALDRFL

Measured: binding result

B1: nikProFA (dsDNA)
DNA 1: AAATCCATATCCCCCTTCCCCCCAGAGGGTATT
DNA 2: AATACCCTCTGGGGGGAAGGGGGATATGGATTT
binds: all assays above

From article PMC5365139
